Data from the DeepSol protein solubility set.

Assay: soluble on expression in E. coli; label from the status in PepcDB or PDB records
With “GLDALFERAVESVAAGLNTEYSKVLEYRPADNKFLLRAGVGWQSGLVGEAAVGAGEESQAGYTLQTEEPVVVEDLRTESRFSGPSLLLDHGVVSGISVIIGTTTEPWGVLGAHTSERRPFTKDDITFVRGVANTLTNAIEREQLEGTLRQAEQRYKTLLENFP” the “soluble on expression in E. coli” value was “not soluble”.
For “MGSDKIHHHHHHMSVAHENARRIISDILGKQNIERVWFVGCGGSLTGFWPGKYFLDCEASKLAVGYITSNEFVHATPKALGKNSVVILASQQGNTAETVAAARVAREKGAATIGLVYQPDTPLCEYSDYIIEYQWARYPETVDPAQQKAAYSLWLALEILAQTEGYAQYDELVSAFGRFSDVVHGAQRQVQEDAQRFAAEWKDEKVVYMMGSGPSFGAAHQESICILLEMQWINSASIHSGEYFHGPFEITEPGTPFILLQSSGRTRPLDDRAIRFIERYQGKLQLIDADKLGIQDLSTDVGEYFCGLLHNCVLDVYNLALATARNHPLTTRRYMWKVEY”, the “soluble on expression in E. coli” value was “not soluble”.
With “MGSDKIHHHHHHMMAMITDPDDFFTKGCGRCARFDTPDCSTRPWIDGLNALRRICFSMGLEETAKWAHPCYMHAGRNIALLGAFRSDFLISFLNAGLLVDKAGVLKTPGPNSQTPSVIRFTTVAEVEALEPTIRAYLRQLMDHAVAGTQPPKMAREIDLPDELVDALDADPVLAEAYHALTPGRQRSYLFALSQAKQSATRVARIEKFRDKIIAGKGALER” the “soluble on expression in E. coli” value was “not soluble”.
In the case of “GPGGALPTCPACHKITPRTEAPVSSVSNSLENALHTSAHSTEESLPKRPLGKHSKVSVEKIDLKGLSHTKNDRNVECSFEVLWSDSSITSVTKSSSEVTEFISKLCQLYPEENLEKLIPCLAGPDAFYVERNHVDLDSGLRYLASLPSHVLKNDHVRRFLSTSSPPQQLQSPSPGNPSLSKVGTVMGVSGRPVCGVAGIPSSQSGAQHHGQHPAGSAAPLPHCSHAGSAGSALAYRTQMDTSPAILMPSSLQTPQTQEQNGILDWLRKLRLHKYYPVFKQLSMEKFLSLTEEDLNKFESLTMGAKKKLKTQLELEKEKSERRCLNPSAPPLVTSSGVARVPPTSHVGPVQSGRGSHAAELRVEVEQPHHQLPREGSSSEYSSSSSSPMGVQAREESSDSAEENDRRVEIHLESSDKEKPVMLLNHFTSSSARPTAQVLPVQNEASSNPSGHHPLPPQMLSAASHITPIRMLNSVHKPERGSADMKLLSSSVHSLLSLEERNKGSGPRSSMKVDKSFGSAMMDVLPASAPHQPVQVLSGLSESSSMSPTVSFGPRTKVVHASTLDRVLKTAQQPALVVETSTAATGTPSTVLHAARPPIKLLLSSSVPADSAISGQTSCPNNVQISVPPAIINPRTALYTANTKVAFSAMSSMPVGPLQGGFCANSNTASPSSHPSTSFANMATLPSCPAPSSSPALSSVPESSFYSSSGGGGSTGNIPASNPNHHHHHHHQQPPAPPQPAPPPPGCIVCTSCGCSGSCGSSGLTVSYANYFQHPFSGPSVFTFPFLPFSPMCSSGYVSAQQYGGGSTFPVVHAPYSSSGTPDPVLSGQSTFAVPPMQNFMAGTAGVYQTQGLVGSSNGSSHKKSGNLSCYNCGATGHRAQDCKQPSMDFNRPGTFRLKYAPPAESLDSTD”, the “soluble on expression in E. coli” value was “soluble”.
For “MTTAHRPTFHPARGGTARGEGDLSKLSNQYSSKDMPSHTKMKYRQTGQETEADLRKKDLRRELEDKERNAIREKRARDSASSSSSHSKRQRMDQIAAESAASVDADEAVDELNSSDDDDSDEDDTAALMAELEKIKKERAEEKAARDEEIKEKEEKQRMENILAGNPLLNDTPAGSSTSGGDFTVKRRWDDDVVFKNCAKGVEERKKEVTFINDAIRSEFHKKFMDKYIK”, the “soluble on expression in E. coli” value was “soluble”.
With “MGSDKIHHHHHHMVSLMEHGMLPDAVIRSGIRRLLMKRLQEESCGDTEADRARQREFFEQLSHSPLAMETGAANKQHYELPPDFFSLVLGPRRKYSCCLYPPGVDDLATAEEAMLRLTCQRAGLADGMDILELGCGWGSLTLWMAEHYPDARITAVSNSAPQRQFIQGACRGRGFGNVRVITADMNDFTIEKTFDRVVSVEMFEHMRNYAELLRRIAGWLKDDGRLFVHIFCHRTLAYLFQTDGEDDWMGRYFFTGGIMPSDHLLFYFNDHLAVEDHWRVGGRHYQRTCDGWLERMDTERRKILEIFWDVYEGDAPVWFQRWRVFFMACSELFGYSEGNEWFVSHYLLRKNSAGVLCGNRQKALSFSGVCK” the “soluble on expression in E. coli” value was “not soluble”.
For “MEINIFNTNKKYDVIYADPPWRYNDRKCNGACEHHYDTMTLEEIKKLPIKELCEKDCVLFLWTTYPMLKEALEVMEAWGFKYKSIAFQWIKLNRSGNGKFFGLGRWTRGNTEPCLLAVKGKPSRKSNSVSQLIEYPLGKHSAKPPITRDKIKELMGEECKCLELFARNNIEGWDCWGNEVGKMDEVILEHHHHHH”, the “soluble on expression in E. coli” value was “soluble”.
For “MKKIAIIGGGIIGMTLANYLDPQKFDITVYDEGLGQATKASAGIISPWLSKRRNKKWYQLAREGAALFPKLVKDFQLTEDIYRQSGTVILRPAAALADLAHLAEERKQTAPEIGEITMLSAVQTAKFLPLLKETPSLFISGGGRLDGPAYLNHLQKRAEAKGVTFCSQRAHFRQLNQGWEIVTNSEKKSVDFLALTPGPHLKELLTTLNLSVDIRPQKGQLLVFETPFTNSQQWPVAMLDGEADLIPFNQGKILLGATHENEQAWDLEETVSAFQQLTSGTAPFLKEAEQLFKQPMHYRVGTRAYTSDFAPFFGPLPEMPHLVVASGLGSSGLTTGPFIGYQLAEYFNTGAFKGELYQKPLSQYVKNNPSL”, the “soluble on expression in E. coli” value was “not soluble”.
With “GMIDFTKSKQYTLSIRLSTDGFSFSIYNPINDNSQSLFEKEVDTSLSLTANLKNVFHESDFLSYSYKRVNIMIASKRFTMIPLELFEEEQAELLFYHNHQKRENEIVMYNILKKNNVVIIFGIDKSTYTFLNEQYPEARFYSQSTPLIEYFSIKSRLGNSKKMYASVRKDAIDIYCFERGQLLLANSFECMQTEDRIYYLLYVWKQLEFNQERDELHLTGTLSDKETLMNELKKFILQVFIMNPANNIDMQALLTCE” the “soluble on expression in E. coli” value was “soluble”.
For “MSDPYPATEAHAQRAAKSPPKSLLDRLLSLVRREPEDREGIKAILEAAHERELLDAESYAMIKGALAVSERTVADIMVPRSRMDLLDISQPLPQLLATIIETAHSRFPVYEDDRDNIIGILLAKDLLRYMLEPALDIRSLVRPAVFIPEVKRLNVLLREFRASRNHLAIVIDEHGGISGLVTMEDVLEQIVGDIEDEFDEDEEESIFPEGENQWRLTASTDISHFNATFATDLPDDEYDSVGGWLGGQLGRIPRRGDSADHDGLHIEVVRADARRALWLRVRRNAGAQPPASAAE”, the “soluble on expression in E. coli” value was “soluble”.
In the case of “GSMKPYKELERVFTKLYRYGHMLLLADWDSHTMMPCKGSDARGAAMAELQLHMHDTITAPKIRALIEEAEKSVGDLEKLQRANLREMRRAWELENLLPEEFVERKTVLTTKAHQVWKTCREKNDFAGFLPTLKELIALFREEGKLRAGNSGKHPYEALVDIYEPGMTLQRLDEIFGNVRSWLPELLKEVQEKQKALGETVLEPKGPFPVSKQEALCRFFMDVWKFDFDGGRLDVSAHPFCGNSKEDVRITTKYTETEFVTSLLGVIHETGHAKYEQNCGPKGFETQPVCMARSLGVHEGQSLFAEMQIGRSGAFMEFLAPRLVEYFGDQPAFTSSNMKRVIQRVSPGLIRIDADELCYPLHVMLRYEIERDLMDGNIEAEEVPRVWNEKMKSYLGLETLGNDKEGCLQDVHWSGGMFGYFPTYSLGAMVAAQLMSCVRRELGEEVVDDCIRKGDLGKILAKQNEKIWQHGSSLTTDELLRQATGETLNPEHYRRHLERRYRDDRG”, the “soluble on expression in E. coli” value was “soluble”.
For “MGSDKIHHHHHHMAKPKRRYVCQACGSVTHRWQGQCVDCSEWNTLAEEAPETIFSAKHDLSSGGRRVAFVSLDQPVALPQRRKTGIAEFDRALGGGLVPGCAILMGGDPGIGKSTLLLQASAKVALSGGSAVYISGEEASDQVRLRADRLGLGKAPILLAAATSVRDILTTLGNMEPPSLVVIDSIQTMHSDQIEGAPGTVSQVRGCAFELIRYAKENGVALVLVGHVTKDGSIAGPRVLEHMVDVVMSFEGERSHQYRILRALKNRFGAVDEIGVFAMAGQGLEEVGNPSMLFLSGREQEVPGSAVFPALEGTRPVLVEIQALTVRLASGATPRRAVVGWDSGRLAMLLAVLEARCGLNFSSAEVYLNVAGGYRLTDPAADLAVAAALVSALSDRPLPSGSIWFGEISLAGEVRPVAHTPVRLKEAAKLGFSRGCGPEAGAEKVDGLRYSPLRLLPNLIDRVMGGS”, the “soluble on expression in E. coli” value was “not soluble”.
In the case of “MRDMIYGEMALVSHTHPAAVGSTTCYEKNQQKQQQVQQIPTQPQVAHVSSNAILAAAQPFYPPPVQDSQPDRPIGYGAFGVVWSVTDPRSGKRVALKKMPNVFQNLASCKRVFREIKMLSSFRHDNVLSLLDILQPANPSFFQELYVLTELMQSDLHKIIVSPQALTPDHVKVFVYQILRGLKYLHTANILHRDIKPGNLLVNSNCILKICDFGLARTWDQRDRLNMTHEVVTQYYRAPELLMGARRYTGAVDIWSVGCIFAELLQRKILFQAAGPIEQLQMIIDLLGTPSQEAMKYACEGAKNHVLRAGLRAPDTQRLYKIASPDDKNHEAVDLLQKLLHFDPDKRISVEEALQHRYLEEGRLRFHSCMCSCCYTKPNMPSRLFAQDLDPRHESPFDPKWEKDMSRLSMFELREKMYQFVMDRPALYGVALCINPQSAAYKNFASSSVAQASELPPSPQAW”, the “soluble on expression in E. coli” value was “not soluble”.
In the case of “MFEEKASSPSGKMGGEEKPIGAGEEKQKEGGKKKNKEGSGDGGRAELNPWPEYIYTRLEMYNILKAEHDSILAEKAEKDSKPIKVTLPDGKQVDAESWKTTPYQIACGISQGLADNTVIAKVNNVVWDLDRPLEEDCTLELLKFEDEEAQAVYWHSSAHIMGEAMERVYGGCLCYGPPIENGFYYDMYLEEGGVSSNDFSSLEALCKKIIKEKQAFERLEVKKETLLAMFKYNKFKCRILNEKVNTPTTTVYRCGPLIDLCRGPHVRHTGKIKALKIHKNSSTYWEGKADMETLQRIYGISFPDPKMLKEWEKFQEEAKNRDHRKIGRDQELYFFHELSPGSCFFLPKGAYIYNALIEFIRSEYRKRGFQEVVTPNIFNSRLWMTSGHWQHYSENMFSFEVEKELFALKPMNCPGHCLMFDHRPRSWRELPLRLADFGVLHRNELSGALTGLTRVRRFQQDDAHIFCAMEQIEDEIKGCLDFLRTVYSVFGFSFKLNLSTRPEKFLGDIEVWDQAEKQLENSLNEFGEKWELNSGDGAFYGPKIDIQIKDAIGRYHQCATIQLDFQLPIRFNLTYVSHDGDDKKRPVIVHRAILGSVERMIAILTENYGGKWPFWLSPRQVMVVPVGPTCDEYAQKVRQQFHDAKFMADIDLDPGCTLNKKIRNAQLAQYNFILVVGEKEKISGTVNIRTRDNKVHGERTISETIERLQQLKEFRSKQAEEEF”, the “soluble on expression in E. coli” value was “soluble”.
With “MGHHHHHHSHQQENGSMFSLITWNIDGLDLNNLSERARGVCSYLALYSPDVIFLQEVIPPYYSYLKKRSSNYEIITGHEEGYFTAIMLKKSRVKLKSQEIIPFPSTKMMRNLLCVHVNVSGNELCLMTSHLESTRGHAAERMNQLKMVLKKMQEAPESATVIFAGDTNLRDREVTRCGGLPNNIVDVWEFLGKPKHCQYTWDTQMNSNLGITAACKLRFDRIFFRAAAEEGHIIPRSLDLLGLEKLDCGRFPSDHWGLLCNLDIIL” the “soluble on expression in E. coli” value was “not soluble”.
In the case of “MKDWLDEIHWNADGLVPAIAQDHETGRVLMMAWMNREALALTASENRAIYWSRSRGKLWRKGEESGHVQKLHELRLDCDADVVILMVEQVGGIACHTGRESCFYRVFENGAWKTVDPVLKDPDAIYEHAGHHHE”, the “soluble on expression in E. coli” value was “not soluble”.
In the case of “MSLKIIIAPAKIMKLDRDSFPVQSTPEFLKKTRILEKFLKSRTRDQLETLWHASDKVVEQSLFQLKNMDLDTNLTPAILAFSGIQYQYMAPDLFTQPALDYIQKNLRILSGFYGMLRPFDGICPYRLELNTKMVGFRDYSLYHFWDEDIANSLFKEDQVVINLASKQYMRLVKPYLNSARRMITVDFQELKNDKWKTVGVHAKMARGEMVRFMAEKQIKNPADLRDFHDFDFQFVPEVSSDDHYIFRTDFDFTRHEGHHHHHH”, the “soluble on expression in E. coli” value was “soluble”.
In the case of “MVKKMVIAVRKDLDMGKGKIAAQVAHAAVTCAIRSMKINRDVFNEWYDEGQRKIVVKVNDLDEIMEIKRMADSMGIVNEIVQDRGYTQVEPGTITCIGLGPDEEEKLDKITGKYKLL”, the “soluble on expression in E. coli” value was “soluble”.
